From article PMC8929358
Numbering of substitutions follows the chain as printed. In names and notes the source's numbering stands.

B1: UGT 2B7 (Homo sapiens) (protein)
chain: GKVLVWAAEYSHWMNIKTILDELIQRGHEVTVLASSASILFDPNNSSALKIEIYPTSLTKTELENFIMQQIKRWSDLPKDTFWLYFSQVQEIMSIFGDITRKFCKDVVSNKKFMKKVQESRFDVIFADAIFPCSELLAELFNIPFVYSLSFSPGYTFEKHSGGFIFPPSYVPVVMSELTDQMTFMERVKNMIYVLYFDFWFEIFDMKKWDQFYSEVLGRPTTLSETMGKADVWLIRNSWNFQFPYPLLPNVDFVGGLHCKPAKPLPKEMEDFVQSSGENGVVVFSLGSMVSNMTEERANVIASALAQIPQKVLWRFDGNKPDTLGLNTRLYKWIPQNDLLGHPKTRAFITHGGANGIYEAIYHGIPMVGIPLFADQPDNIAHMKARGAAVRVDFNTMSSTDLLNALKRVINDPSYKENVMKLSRIQHDQPVKPLDRAVFWIEFVMRHKGAKHLRVAAHDLTWFQYHSLDVIGFLLVCVATVIFIVTKCCLFCFWKFARKAKKGKND
B2: UGT 1A8 (Homo sapiens) (protein)
chain: GKLLVVPMDGSHWFTMQSVVEKLILRGHEVVVVMPEVSWQLGKSLNCTVKTYSTSYTLEDLDREFMDFADAQWKAQVRSLFSLFLSSSNGFFNLFFSHCRSLFNDRKLVEYLKESSFDAVFLDPFDACGLIVAKYFSLPSVVFARGIACHYLEEGAQCPAPLSYVPRILLGFSDAMTFKERVRNHIMHLEEHLFCQYFSKNALEIASEILQTPVTAYDLYSHTSIWLLRTDFVLDYPKPVMPNMIFIGGINCHQGKPLPMEFEAYINASGEHGIVVFSLGSMVSEIPEKKAMAIADALGKIPQTVLWRYTGTRPSNLANNTILVKWLPQNDLLGHPMTRAFITHAGSHGVYESICNGVPMVMMPLFGDQMDNAKRMETKGAGVTLNVLEMTSEDLENALKAVINDKSYKENIMRLSSLHKDRPVEPLDLAVFWVEFVMRHKGAPHLRPAAHDLTWYQYHSLDVIGFLLAVVLTVAFITFKCCAYGYRKCLGKKGRVKKAHKSKTH
B3: UGT 1A10 (Homo sapiens) (protein)
chain: GKLLVVPMDGSHWFTMQSVVEKLILRGHEVVVVMPEVSWQLERSLNCTVKTYSTSYTLEDQNREFMVFAHAQWKAQAQSIFSLLMSSSSGFLDLFFSHCRSLFNDRKLVEYLKESSFDAVFLDPFDTCGLIVAKYFSLPSVVFTRGIFCHHLEEGAQCPAPLSYVPNDLLGFSDAMTFKERVWNHIVHLEDHLFCQYLFRNALEIASEILQTPVTAYDLYSHTSIWLLRTDFVLDYPKPVMPNMIFIGGINCHQGKPLPMEFEAYINASGEHGIVVFSLGSMVSEIPEKKAMAIADALGKIPQTVLWRYTGTRPSNLANNTILVKWLPQNDLLGHPMTRAFITHAGSHGVYESICNGVPMVMMPLFGDQMDNAKRMETKGAGVTLNVLEMTSEDLENALKAVINDKSYKENIMRLSSLHKDRPVEPLDLAVFWVEFVMRHKGAPHLRPAAHDLTWYQYHSLDVIGFLLAVVLTVAFITFKCCAYGYRKCLGKKGRVKKAHKSKTH
B4: UGT 1A9 (Homo sapiens) (protein)
chain: GKLLVVPMDGSHWFTMRSVVEKLILRGHEVVVVMPEVSWQLGRSLNCTVKTYSTSYTLEDLDREFKAFAHAQWKAQVRSIYSLLMGSYNDIFDLFFSNCRSLFKDKKLVEYLKESSFDAVFLDPFDNCGLIVAKYFSLPSVVFARGILCHYLEEGAQCPAPLSYVPRILLGFSDAMTFKERVRNHIMHLEEHLLCHRFFKNALEIASEILQTPVTEYDLYSHTSIWLLRTDFVLDYPKPVMPNMIFIGGINCHQGKPLPMEFEAYINASGEHGIVVFSLGSMVSEIPEKKAMAIADALGKIPQTVLWRYTGTRPSNLANNTILVKWLPQNDLLGHPMTRAFITHAGSHGVYESICNGVPMVMMPLFGDQMDNAKRMETKGAGVTLNVLEMTSEDLENALKAVINDKSYKENIMRLSSLHKDRPVEPLDLAVFWVEFVMRHKGAPHLRPAAHDLTWYQYHSLDVIGFLLAVVLTVAFITFKCCAYGYRKCLGKKGRVKKAHKSKTH
B5: UGT 1A3 (Homo sapiens) (protein)
chain: GKVLVVPIDGSHWLSMREVLRELHARGHQAVVLTPEVNMHIKEENFFTLTTYAISWTQDEFDRHVLGHTQLYFETEHFLKKFFRSMAMLNNMSLVYHRSCVELLHNEALIRHLNATSFDVVLTDPVNLCAAVLAKYLSIPTVFFLRNIPCDLDFKGTQCPNPSSYIPRLLTTNSDHMTFMQRVKNMLYPLALSYICHAFSAPYASLASELFQREVSVVDILSHASVWLFRGDFVMDYPRPIMPNMVFIGGINCANRKPLSQEFEAYINASGEHGIVVFSLGSMVSEIPEKKAMAIADALGKIPQTVLWRYTGTRPSNLANNTILVKWLPQNDLLGHPMTRAFITHAGSHGVYESICNGVPMVMMPLFGDQMDNAKRMETKGAGVTLNVLEMTSEDLENALKAVINDKSYKENIMRLSSLHKDRPVEPLDLAVFWVEFVMRHKGAPHLRPAAHDLTWYQYHSLDVIGFLLAVVLTVAFITFKCCAYGYRKCLGKKGRVKKAHKSKTH
B6: UGT 1A1 (Homo sapiens) (protein)
chain: HAGKILLIPVDGSHWLSMLGAIQQLQQRGHEIVVLAPDASLYIRDGAFYTLKTYPVPFQREDVKESFVSLGHNVFENDSFLQRVIKTYKKIKKDSAMLLSGCSHLLHNKELMASLAESSFDVMLTDPFLPCSPIVAQYLSLPTVFFLHALPCSLEFEATQCPNPFSYVPRPLSSHSDHMTFLQRVKNMLIAFSQNFLCDVVYSPYATLASEFLQREVTVQDLLSSASVWLFRSDFVKDYPRPIMPNMVFVGGINCLHQNPLSQEFEAYINASGEHGIVVFSLGSMVSEIPEKKAMAIADALGKIPQTVLWRYTGTRPSNLANNTILVKWLPQNDLLGHPMTRAFITHAGSHGVYESICNGVPMVMMPLFGDQMDNAKRMETKGAGVTLNVLEMTSEDLENALKAVINDKSYKENIMRLSSLHKDRPVEPLDLAVFWVEFVMRHKGAPHLRPAAHDLTWYQYHSLDVIGFLLAVVLTVAFITFKCCAYGYRKCLGKKGRVKKAHKSKTH
B7: SULT1A1*1 (Homo sapiens) (protein)
chain: MELIQDTSRPPLEYVKGVPLIKYFAEALGPLQSFQARPDDLLISTYPKSGTTWVSQILDMIYQGGDLEKCHRAPIFMRVPFLEFKAPGIPSGMETLKDTPAPRLLKTHLPLALLPQTLLDQKVKVVYVARNAKDVAVSYYHFYHMAKVHPEPGTWDSFLEKFMVGEVSYGSWYQHVQEWWELSRTHPVLYLFYEDMKENPKREIQKILEFVGRSLPEETVDFVVQHTSFKEMKKNPMTNYTTVPQEFMDHSISPFMRKGMAGDWKTTFTVAQNERFDADYAEKMAGCSLSFRSEL
B8: SULT1A1*2 (Homo sapiens; R213H) (protein)
chain: B7 chain with R213H

How the values were obtained:
[1] = substrate: Cc1c(Cl)c(C)[n+]([O-])c(Cl)c1-c1noc(-c2cc(O)c(O)c([N+](=O)[O-])c2)n1; assay: cells, lysate or membranes named; assay type: in vitro ADME, human; conditions: pH 7.5; 37.0 °C
[2] = substrate: Cc1c(Cl)c(C)[n+]([O-])c(Cl)c1-c1noc(-c2cc(O)c(O)c([N+](=O)[O-])c2)n1; assay: not read; assay type: in vitro ADME, human; conditions: other: substrate inhibition fit; pH 7.4; 37.0 °C

Row | Protein | Km [1] [µM] | Km [2] [µM]
1 | B1 | 20.6 | 
2 | B2 | 34.8 ± 9.6 | 
3 | B3 | 64.9 ± 23.8 | 
4 | B4 | 13.7 | 
5 | B5 | 213 | 
6 | B6 | 18 | 
7 | B7 |  | 18.7
8 | B8 |  | 27.3
